The text below walks through data of patent US20150307599A1 (GARVAN INSTITUTE OF MEDICAL RESEARCH, published 2015).

As a reminder, the Kd is the equilibrium constant for the complex coming apart.

In one experiment the target is biotin-hPYY (human, N-terminal Biotin-Ahx-; C-terminal amide (-NH2)). Briefly: BLI (ForteBio Blitz), biotinylated peptide on streptavidin sensor, scFv in solution. The protocol:
(§1) Affinity of the purified scFv for biotin-NPY, biotin-hPYY and biotin-hPP was determined using a Blitz system (ForteBio). Streptavidin Biosensors were blocked for 1 hr with 1% BSA in PBS. Biosensors were then coupled for 120 seconds with 1 μM solutions of biotinylated peptide followed by a 30 second baseline measurement. The sensors were then transferred to varying dilutions of purified scFv and association was measured for 300 seconds. The sensors were then transferred to PBS and dissociation was measured for 900 seconds. Global fits were determined for association and dissociation curves at two concentrations of each scFv against each of the peptides. All curves were referenced with peptide-only and scFv-only runs.

A further experiment deals with biotin-NPY (N-terminal Biotin-Ahx-; C-terminal amide (-NH2)). The experiment is described as above. The procedure: as §1
The next experiment deals with T1, biotin-hPP (human, N-terminal Biotin-Ahx-; C-terminal amide (-NH2)).
T1 peptide: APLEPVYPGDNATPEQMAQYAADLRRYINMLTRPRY
The description is as above. The protocol: as §1

The target of experiment [1] is T2, biotin-NPY20-36 (SMILES …).
T2 construct: Captured on neutravidin or streptavidin plates
T2 peptide: {Biotin-Ahx}-YYSALRHYINLITRQRY-NH2
Briefly: phage ELISA, scFv on phage, anti-M13 detection. The protocol: Overnight cultures were grown from clones transformed with the humanized 5E12-B7 scFv genes pHEN1 vector. Phages were then produced through overnight incubation after rescue with KM13 helper phage. In order to analyze antigen binding, ELISA plates were coated with 500 ng/mL biotin-NPY₂₀₋₃₆ on 10 ug/mL neutravidin; 10 ug/mL neutravidin only; 10 ug/mL Protein A or 10 ug/mL Protein L
ELISA plates were blocked with 5% skim milk/PB ST then incubated with phage culture supernatant which had also been blocked with 5% skim milk/1% Tween (final concentration). Binding of scFv-phage to wells was detected with Peroxidase conjugated anti-M13 secondary antibody.
On the technique in general: In an ELISA, binding on a coated surface is turned into a signal by an enzyme label.

For experiment [2], the target named is T2, biotin-NPY20-36. Briefly: soluble scFv ELISA, biotin-NPY20-36 on streptavidin. The protocol:
(§2) In order to analyze antigen binding, ELISA plates were coated with 1 ug/mL biotin-NPY₂₀₋₃₆ on 10 ug/mL streptavidin […] streptavidin only.
(§3) Plates were then blocked with 5% skim milk/PB ST and incubated with supernatant from the IPTG-induced cultures. Binding of soluble scFv to wells was detected with peroxidase conjugated anti-cMyc.

The target of experiment [3] is T2, biotin-NPY20-36. Briefly: soluble scFv ELISA, biotin-NPY20-36 on streptavidin, anti-cMyc detection. The procedure:
as §2, §3

The star is where a group is joined. Biotin = O=C1N[C@H]2[C@H](CS[C@H]2CCCCC(=O)*)N1; Ahx = NCCCCCC(=O)O

biotin-hPYY (human, N-terminal Biotin-Ahx-; C-terminal amide (-NH2)), sequence (peptide, as listed by the source): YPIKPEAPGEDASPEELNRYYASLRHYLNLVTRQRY

B1: h5E12 IGHV1-46/DPK9 scFv (humanized) (scFv)
scFv: QVQLVQSGAEVKKPGASVKVSCKASGYTFTNYWMHWVRQAPGQGLEWMGNIDPSNGGTNYNEKFKSRVTMTRDTSTSTVYMELSSLRSEDTAVYYCASFAYWGQGTLVTVSSGGGGSGGGGSGGGGSTDIQMTQSPSSLSASVGDRVTITCRASGNIHNYLAWYQQKPGKAPKLLIYNAKTLADGVPSRFSGSGSGTDFTLTISSLQPEDFATYYCQHFWSPPFTFGQGTKVEIKR
notes: Humanized 5E12 scFv
With B1, the Kd with biotin-hPYY amounted to 1040 nM; in the experiment with biotin-NPY it was 905 nM. In the experiment with biotin-hPP, the “max signal (nm)” value is less than 0.2 nm. In addition, the binding result with biotin-NPY20-36 [1] is given as “binds”.

B2: h5E12 IGHV1-69/DPK9 scFv (humanized) (scFv)
scFv: QVQLVQSGAEVKKPGSSVKVSCKASGYTFTNYWMHWVRQAPGQGLEWMGNIDPSNGGTNYNEKFKSRVTITADESTSTAYMELSSLRSEDTAVYYCASFAYWGQGTLVTVSSGGGGSGGGGSGGGGSTDIQMTQSPSSLSASVGDRVTITCRASGNIHNYLAWYQQKPGKAPKLLIYNAKTLADGVPSRFSGSGSGTDFTLTISSLQPEDFATYYCQHFWSPPFTFGQGTKVEIKR
notes: Humanized 5E12 scFv
For the molecule B2, the Kd in the experiment with biotin-hPYY worked out at 140 nM; in the experiment with biotin-NPY it was 142 nM. In addition, the “max signal (nm)” value in the experiment with biotin-hPP was less than 0.2 nm. Further, the binding result in the experiment with biotin-NPY20-36 [1] is listed as “binds”.

B3: scFv-3 (human) (scFv)
scFv: EVQLLESGGGLVQPGGSLRLSCAASGFRFSDEDMGWVRQAPGKGLEWVSSIYGPSGSTYYADSVKGRFTISRDNSKNTLYLQMNSLRAEDTAVYYCAKDDVGTGTFDYWGQGTLVTVSSGGGGSGGGGSGGGGSTDIQMTQSPSSLSASVGDRVTITCRASQYIYYALNWYQQKPGKAPKLLIYDYSALQSGVPSRFSGSGSGTDFTLTISSLQPEDFATYYCQQSYYHPATFGQGTKVEIKR
notes: Human scFv from the Garvan-2 phage library; Whole entry used as named
In turn, B3 displayed a Kd with biotin-hPYY of 1910 nM. The “max signal (nm)” value with biotin-hPP was less than 0.2 nm. Also, in the experiment with biotin-NPY20-36 [2], the binding result is on record as “binds”.

B4: scFv-7 (human) (scFv)
scFv: EVQLLESGGGLVQPGGSLRLSCAASGFRFDYEDMGWVRQAPGKGLEWVSAIASDGDSTYYADSVKGRFTISRDNSKNTLYLQMNSLRAEDTAVYYCAKIYYDGAYRVFDYWGQGTLVTVSSGGGGSGGGGSGGGGSTDIQMTQSPSSLSASVGDRVTITCRASQSISSYLNWYQQKPGKAPKLLIYSASYLQSGVPSRFSGSGSGTDFTLTISSLQPEDFATYYCQQYSMLPTTFGQGTKVEIKR
notes: as for B3
Molecule B4 yielded a Kd with biotin-NPY of 9250 nM. Besides, the “max signal (nm)” value in the experiment with biotin-hPP was less than 0.2 nm. Further, the binding result in the experiment with biotin-NPY20-36 [2] was “binds”.

B5: scFv-6 (human) (scFv)
scFv: EVQLLESGGGLVQPGGSLRLSCAASGFRFSAEDMGWVRQAPGKGLEWVSSIASAGASTYYADSVKGRFTISRDNSKNTLYLQMNSLRAEDTAVYYCAKHMYSYAIFDYWGQGTLVTVSSGGGGSGGGGSGGGGSTDIQMTQSPSSLSASVGDRVTITCRASQDIADALNWYQQKPGKAPKLLIYAASSLQSGVPSKFSGSGSGTDFTLTISSLQPEDFATYYCQQGYVHPPTFGQGTKVEIKR
notes: as for B3
In the case of B5, the Kd with biotin-hPYY amounted to 3240 nM; in the experiment with biotin-NPY, 177 nM. Moreover, the “max signal (nm)” value in the experiment with biotin-hPP is less than 0.2 nm. The binding result in the experiment with biotin-NPY20-36 [2] is “binds”.

B6: mouse 5E12-B7 scFv PSE2 (scFv, V domains shown, not shown: small tags and cut ends)
VH: QVQLQHPGTEVVKPGASVKLSCKASGYTFTNYWMHWVKQRPGQGLEWIGNIDPSNGGTNYNEKFKSKATLTVDKSSSTAYMQLSSLTSEDSAVYYCASFAYWGQGTLVTVSS
VL: DIQMTQSPASLSASVGETVTITCRASGNIHNYLAWYQQKQGKSPQLLVYNAKTLADGVPSRFSGSGSGTQYSLKISSLRPEDFGSYYCQHFWSPPFTFGSGTKLEIK
notes: also called 5E12 (mouse); mouse 5E12 PSE2
With B6, the binding result in the experiment with biotin-NPY20-36 [3] was “binds”. For the same molecule, the Kd with biotin-hPYY is 32.9 nM; with biotin-NPY, 22.1 nM.
